54 substances from the supplement of paper PMC12042874 can be followed below.

± gives the uncertainty stated by the source.

The nature of the series: amyloid nucleation score (Sup35N fusion, yeast selection) (log enrichment); library NNK3; higher = more nucleation; inactive = no reads after selection. Put shortly:
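Using DiMSum, nucleation scores were taken as the log enrichment of output over input reads, centred on the mode score of non-aggregating sequences. The input and output reads came from Illumina sequencing of plasmid inserts, with sequences under 100 input reads excluded. The yeast were psi-negative, expressed Sup35N fused to peptides of 20 random codons, were induced with 100 μM copper sulfate for 24 hours, and were grown 7 days at 30°C on medium lacking adenine and uracil.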
MDITWIKVVHNIHQTVRSKF came in with an amyloid nucleation score of 1 ± 0.22.
For the substance QWIVDFCNCTWEVVRVLRFC, the amyloid nucleation score result is “inactive”.
As to KARLLMWS, the amyloid nucleation score amounted to 0.181 ± 0.28.
The value for IVYLAVFRWGSMSKSRFGFD was “inactive”; that for CSVFPQVRLCPRSSANQELD was “inactive”; that for SPLKIMH was “inactive”.
On to WQPFD, for which the amyloid nucleation score result was “inactive”.
As for FWNSFHFVNNYWHVY, the amyloid nucleation score entry was “inactive”.
Turning to RDEYYRDRLGIVNLSRCSKS, the amyloid nucleation score entry was “inactive”.
The value for NLEYCSILFKRH was 2 ± 0.095; that for RMRKSFLFVWIDFILKR was “inactive”.
In the case of LNWMRFYVMDMVTFGVWSDQ, the amyloid nucleation score was determined as 0.152 ± 0.31.
The same measure for CSFSISSSGVLWRGKERPIG: 1.05 ± 0.18.
The same measure for SIIIIISCFGVQNVWFAEMM: 0.405 ± 0.3; for SPRSFIILVGNGYISCSSVE: 2.56 ± 0.073.
With KFGFLYPISCDVYGQDFLAL, the amyloid nucleation score entry was “inactive”.
The value for PIIFNFLRIM was 1.7 ± 0.058.
In the case of SYWPVRSELQSVLLNSCGVR, the amyloid nucleation score result is “inactive”.
The value for QLKSVRACGRRGPLSQ was “inactive”; that for VQSSPVYMFMTNNSF was 1.8 ± 0.056.
The same measure for VDMVGYRNLRCHSN: “inactive”.
The same measure for VCVTSSSMCNFDGLVVTRVV: “inactive”; for FFFYLPICTLGILYLFDCKA: 0.386 ± 0.2.
Take TGCPWIRTVNPVVPWVCEHR: the amyloid nucleation score entry is “inactive”.
The same measure for ESVCYLFCYSHYLGNYGYGS: “inactive”; for YRANINRVLVFQLN: 1.44 ± 0.086.
As for VAQSFEIGYYSGLYIYYCSV, the amyloid nucleation score result was “inactive”.
The same measure for SMKEVLMTSGTSNVITSGGD: “inactive”; for HKSINVIRDPGKIVFLTEVI: “inactive”; for FTCPASST: “inactive”.
The value for PSGVTSCLKEWDSRDHGHRH was “inactive”.
The substance LNDDRISSGYAASIVKGLLT gave an amyloid nucleation score of -0.873 ± 1.4.
With FWMMDYMYSVRMNFVWGYIR, the amyloid nucleation score entry is “inactive”.
The value for ILRSLVSLWYGCDCW was 0.661 ± 0.16.
With RHWTGCSNQESRTGCGACCI, the amyloid nucleation score entry is “inactive”.
The value for RRVMIALRYRRYGEFTEAYP was “inactive”; that for MQYLIYPTWLVIELNC was 0.684 ± 0.13; that for NRPSMSRGVDTRLMSLHETL was “inactive”.
As for YGFRRTACMCL, the amyloid nucleation score result was “inactive”.
The value for VGLWVAYYGRETNRVDNYVT was “inactive”; that for TRRGHHCQFLVSGSGIAL was “inactive”.
Regarding RALLTGWTMSRPGLFIIATS, the amyloid nucleation score was -0.273 ± 1.1.
The same measure for VWCTSVVT: -0.149 ± 0.28; for VSVFMKLVRFET: 1.17 ± 0.091.
The value for VVSSRLDAALDCWVREDCGV was “inactive”.
SGTNNIVLLGHFVDFLEGVL: the amyloid nucleation score entry is “inactive”.
Turning to WIRDFYEFAEWSSDTCGIRI, the amyloid nucleation score result was “inactive”.
On to DNCLNCNRCKCIYKDFWLSA, for which the amyloid nucleation score result is “inactive”.
The value for IHCYCS was “inactive”; that for LFHIQNESGVSYIKWFSLSI was 0.553 ± 0.27.
The same measure for SSAGVGVAKVGARHRLRRCW: “inactive”; for ANWVVVLLNRQASLGRFAYV: “inactive”; for WTWGKAYDAMFLIVTFFCIF: “inactive”.
The same measure for TSQQHPASVSKGYMLRDG: “inactive”.
